Assay results taken from PMC3048872, “The Regulatory Subunit of PKA-I Remains Partially Structured and Undergoes β-Aggregation upon Thermal Denaturation” (PLoS ONE, 2011).

Target: the molecule itself
Assay: dynamic light scattering; thermally denatured RIα(92–381), soluble aggregates; 10 mM K-phosphate buffer, 50 mM KCl, pH 7.5; measured at 22 and 60°C

B1: human RIα(92–381), regulatory subunit RIα of cAMP-dependent protein kinase (PKA), truncated form with the tandem CNB domains A and B (domain or fragment, UniProt P10644 92-381, looked up)
chain: KGRRRRGAISAEVYTEEDAASYVRKVIPKDYKTMAALAKAIEKNVLFSHLDDNERSDIFDAMFSVSFIAGETVIQQGDEGDNFYVIDQGETDVYVNNEWATSVGEGGSFGELALIYGTPRAATVKAKTNVKLWGIDRDSYRRILMGSTLRKRKMYEEFLSKVSILESLDKWERLTVADALEPVQFEDGQKIVVQGEPGDEFFIILEGSAAVLQRRSENEEFVEVGRLGPSDYFGEIALLMNRPRAATVVARGPLKCVKLDRPRFERVLGPCSDILKRNIQQYNSFVSLSV
notes: cAMP-dependent protein kinase type I-alpha regulatory subunit (RIα), human, residues 92-381, numbering according to Swiss-Prot P10644; lacks the N-terminal docking/dimerization domain; In the aggregation experiments the protein was thermally denatured; the self-association is that of the partly unfolded, non-native state; also called apo-RIα(92–381); wt RIα(92–381); source: E. coli BL21 (DE3) …
B1: binds.
